In US10246503B2, “Method of improving the pharmacokinetic profile of a therapeutic polypeptide and the use thereof” (BEIJING ANXINHUAIDE BIOTECH. CO., LTD, priority 2012, dated 2019):

Assays:
[1] = analytical gel filtration (Superdex200), apparent molecular weight; format: physicochemical
From the text: In the fusion protein of GLP-1(A8G/G22E)-Fn8-COL18NC1 described in example 4, the flexible unstructured linker between Fn8 and COL18NC1 contains six residues (GGGSGG; SEQ ID NO:89). To generate the flexible un-structured linkers with different lengths, we have synthesized the genes GLP-1(A8G/G22E/R36S)-Fn8-COL18NC1-20, GLP-1(A8G/G22E/R36S)-Fn8-COL18NC1-30, GLP-1(A8G/G22E/R36S)-Fn8-COL18NC1-54 and GLP-1(A8G/G22E/R36S)-Fn8-COL18NC1-60. In these genes, the length of the flexible unstructured polypeptide linker between Fn8 and COL18NC1 contained 20, 30, 54 and 60 residues, respectively. The protein sequences of GLP-1(A8G/G22E/R36S)-Fn8-COL18NC1-20, GLP-1(A8G/G22E/R36S)-Fn8-COL18NC1-30, GLP-1(A8G/G22E/R36S)-Fn8-COL18NC1-54 and GLP-1(A8G/G22E/R36S)-Fn8-COL18NC1-60 are listed as SEQ ID NO:8-11. The synthetic genes of GLP-1(A8G/G22E/R36S)-Fn8-COL18NC1-20, GLP-1(A8G/G22E/R36S)-Fn8-COL18NC1-30, GLP-1(A8G/G22E/R36S)-Fn8-COL18NC1-54 and GLP-1(A8G/G22E/R36S)-Fn8-COL18NC1-60 were grafted to the pET29b by NdeI and XhoI for protein expressions. The expression and purification of these fusion proteins were carried out using similar protocols described in example 3. To estimate the hydrodynamic radius and/or the Rg of the fusion proteins, the purified proteins were loaded on an analytical gel filtration column Superdex200 (GE Healthcare).
Moreover, the flexible unstructured linker between the therapeutic polypeptide and the scaffold protein may adjust the hydrodynamic radius and/or the Rg of the fusion molecule in a tunable manner.
The apparent molecular weights of the fusion proteins were estimated by use of an analytical gel filtration column Superdex-200 (GE Healthcare) mounted on the AKTA FPLC system (GE Healthcare). The purified fusion proteins GLP-1-Fn8, GLP-1-Fn8-COL18NC1, GLP-1(A8G/G22E/R36G)-Fn8-p246-COL18NC1 were loaded on the Superdex200 column. GLP-1-Fn8 is a fusion protein of GLP-1 and Fn8 and contains the first 144 amino acid residues of the fusion protein GLP-1-Fn8-COL18NC1 (SEQ ID NO:2). […] The genuine molecular weights for the fusion proteins GLP-1-Fn8 monomer, GLP-1-Fn8-COL18NC1 trimer, and GLP-1(A8G/G22E/R36G)-Fn8-p246-COL18NC1 trimer were ˜15 Kd, 65 Kd and 123Kd, respectively.

SD rats = test: toxicity in SD rats; format: in vivo
From the text: The toxicity of GLP1(A8G/G22E/R36G)-Fn8-p246-COL18NC1 in SD rats was also examined.

[2] = pharmacokinetics in SD rats, sandwich ELISA (Example 15); format: in vivo, SD (Sprague-Dawley) rats; conditions: intraperitoneal, 5 nmol/kg
Experimental: To evaluate the pharmacokinetics profiles for the GLP-1 containing fusion proteins generated using the method of the invention, we purified the recombinant fusion proteins of GLP-1-Fn8-COL18NC1, GLP1(A8G/G22E/R36G)-Fn8-p246-COL18NC1 and GLP1(A8G/G22E/R36G)-Fn8-p285-COL18NC1 in PBS buffer, pH 7.2. These fusion proteins were administered into SD (Sprague-Dawley) rats by intraperitoneal injections at the dose of 5 nmol/kg for animals, respectively. Blood samples were taken at various time points after injections such as 0-min, 30-min, 1-hour, 2-hour, 4-hour, 6-hour, 8-hour, 24-hour, 48-hour, 3-day, 4-day, 5-day, 6-day and 7-day. The serum samples were centrifuged and kept at −80° C. freezer.
The GLP-1 concentrations within the samples were examined by use of the sandwich ELISA method. The rabbit polyclonal antibody against human Fibronectin at the concentration of 3 ug/ml (Ab299, Abcam company) was coated on ELISA plate for 1 hour at room temperature. Then the plate was washed by PBST buffer three times and the wells were blocked by PBS with 10% FBS for 1 hour at room temperature. The plate was washed three times before the serum samples containing GLP-1 fusion proteins were added. The serum samples could be diluted to 20-10000 folds before use. The ELISA plate was incubated with the serum samples at room temperature for 1 hour and then washed by PBST buffer five times. Then mouse monoclonal against human GLP-1 peptide antibody (sc57510, Santa Cruz Biotechnology) at the concentration of 1 ug/ml in PBST buffer was added to the wells. The plate was washed extensively after incubation of 1 hour at room temperature. The secondary antibody, […] HRP conjugated antibody (Beijing ZSGB-Bio company, ZB 5301), was added into the wells and the color was developed using TMB (3,3′,5,5′-tetramethylbenzidine, BD Biosciences, Cat 555214). The plate reader (Bio-Rad microplate reader Model 680) was utilized to obtain the OD450 readings. This method has been calibrated using purified proteins first.
The pharmacokinetics parameters were obtained by using the WinNonlin software (Table 5).

cynomolgus monkeys = test: specific antibody against the fusion protein in monkey serum, ELISA; format: in vivo; conditions: serum of three cynomolgus monkeys one month after dosing
From the text: The serum samples of the cynomolgus monkeys receiving the fusion protein GLP1(A8G/G22E/R36G)-Fn8-p246-COL18NC1 were withdrawn one month after dosing to examine whether specific antibody against GLP1(A8G/G22E/R36G)-Fn8-p246-COL18NC1 has been generated.

B1: GLP1(A8G/G22E/R36G)-Fn8-p246-COL18NC1: GLP-1 mutant, Fn8, pCloud p246, COL18NC1 fusion; SEQ ID NO: 16 (protein)
chain: HGEGTFTSDVSSYLEEQAAKEFIAWLVKGGGSGGGSGGGSGGGSGGGSGSGGAVPPPTDLRFTNIGPDTMRVTWAPPPSIDLTNFLVRYSPVKNEEDVAELSISPSDNAVVLTNLLPGTEYVVSVSSVYEQHESTPLRGRQKTGGGGSGGGSGSGSESGSGGGSTSSGTGSETESPGSGSESGSGPSSAGSGSGSESGSGSGSSGPGSTGGSGSESGSGPGSSGTGGTATGSGSESGSGPGSSGPGSTGSGSGSESGSGSGSSGTGSTGGSGSESGSGPGSPRPGSTGTGSGSESGSGPGSSERGSAGGSGSESGSGTSESSASGSTGGSGSESGSGSESGSGSGSESGSGPESPGSGGSGSESGSGTSGSTGSGSESGSGGGSGGGSGGGASSGVRLWATRQAMLGQVHEVPEGWLIFVAEQEELYVRVQNGFRKVQLEARTPLPRG
For B1, the apparent molecular weight [1] was about 550 Kd, the “unacceptable adverse effects such as significant weight loss and fever” value (SD rats; repeated doses of 5 nmol/kg every three days for four weeks) was “did not induce unacceptable adverse effects” and the “unacceptable adverse effects such as significant weight loss and fever” value (SD rats; single dose of 30 nmol/kg) was “did not induce unacceptable adverse effects”. It also gave an AUCall ([2]; Rats) of 301.2 µg·h/mL, a CL/F ([2]; Rats) of 2.03 mL/h/kg and a Cmax ([2]; Rats) of 5.73 µg/mL. It also gave a T½ ([2]; Rats) of 30.8 h, a Vss ([2]; Rats) of 0.09023 L/kg and a half life ([2]; SD rats) of 30.8 h. For the same molecule, the “specific antibody against the fusion protein” value (cynomolgus monkeys) was “no specific antibody was induced”.
